According to paper PMC4555173, “Octanoylation of early intermediates of mycobacterial methylglucose lipopolysaccharides” (Scientific Reports, 2015):

What was measured:
[1] = molecular target: M. hassiacum OctT (Mycolicibacterium hassiacum, UniProt K5BJH8); assay: CoA release with DTNB at […] nm; assay type: biochemical; settings: DGG 20 mM, Oct-CoA 80 μM; product inhibition; enzyme species not given, M. hassiacum inferred from the characterisation
[2] = molecular target: M. tuberculosis OctT (Rv2418c) (Mycobacterium tuberculosis, UniProt P71725)
M. tuberculosis OctT (Rv2418c), sequence (P71725 whole entry): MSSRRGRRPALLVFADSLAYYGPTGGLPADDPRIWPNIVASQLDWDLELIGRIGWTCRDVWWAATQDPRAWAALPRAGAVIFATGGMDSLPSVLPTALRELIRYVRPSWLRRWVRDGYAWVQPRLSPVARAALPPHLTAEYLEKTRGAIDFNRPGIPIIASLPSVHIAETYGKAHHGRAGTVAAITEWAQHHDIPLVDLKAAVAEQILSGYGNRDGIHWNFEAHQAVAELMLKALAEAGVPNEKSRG

[3] = substrate: CCCCCC(=O)SCCNC(=O)CCNC(=O)[C@H](O)C(C)(C)COP(=O)(O)OP(=O)(O)OC[C@H]1O[C@@H](n2cnc3c(N)ncnc32)[C@H](O)[C@@H]1OP(=O)(O)O; assay: purified protein; assay type: biochemical, Mycolicibacterium hassiacum; settings: apparent, DGG 20 mM, 50 mM BTP, 37 °C, substrate inhibition above 100 μM
[4] = substrate: CCCCCCCC(=O)SCCNC(=O)CCNC(=O)[C@H](O)C(C)(C)COP(=O)(O)OP(=O)(O)OC[C@H]1O[C@@H](n2cnc3c(N)ncnc32)[C@H](O)[C@@H]1OP(=O)(O)O; assay: purified protein; assay type: biochemical, Mycolicibacterium hassiacum; settings: apparent, DGG 20 mM, 50 mM BTP, 37 °C, substrate inhibition above 100 μM
[5] = substrate: O=C(O)[C@@H](CO)O[C@H]1O[C@H](CO[C@H]2O[C@H](CO)[C@@H](O)[C@H](O)[C@H]2O)[C@@H](O)[C@H](O)[C@H]1O; assay: purified protein; assay type: biochemical, Mycolicibacterium hassiacum; settings: apparent, Oct-CoA 100 μM, 50 mM BTP, 37 °C
[6] = substrate: O=C(O)[C@@H](CO)O[C@H]1O[C@H](CO)[C@@H](O)[C@H](O)[C@H]1O; assay: purified protein; assay type: biochemical, Mycolicibacterium hassiacum; settings: apparent, Oct-CoA 100 μM, 50 mM BTP, 37 °C
[7] = substrate: CCCCCCCC(=O)SCCNC(=O)CCNC(=O)[C@H](O)C(C)(C)COP(=O)(O)OP(=O)(O)OC[C@H]1O[C@@H](n2cnc3c(N)ncnc32)[C@H](O)[C@@H]1OP(=O)(O)O; assay: purified protein; assay type: biochemical, Mycolicibacterium smegmatis; settings: apparent, DGG 45 mM, 50 mM BTP, 37 °C, substrate inhibition above 100 μM
[8] = substrate: O=C(O)[C@@H](CO)O[C@H]1O[C@H](CO[C@H]2O[C@H](CO)[C@@H](O)[C@H](O)[C@H]2O)[C@@H](O)[C@H](O)[C@H]1O; assay: purified protein; assay type: biochemical, Mycolicibacterium smegmatis; settings: apparent, Oct-CoA 100 μM, 50 mM BTP, 37 °C
[9] = substrate: O=C(O)[C@@H](CO)O[C@H]1O[C@H](CO)[C@@H](O)[C@H](O)[C@H]1O; assay: purified protein; assay type: biochemical, Mycolicibacterium smegmatis; settings: apparent, Oct-CoA 100 μM, 50 mM BTP, 37 °C

## CCCCCCCC(=O)OC[C@H]1O[C@H](OC[C@H]2O[C@H](O[C@H](CO)C(=O)O)[C@H](O)[C@@H](O)[C@@H]2O)[C@H](O)[C@@H](O)[C@@H]1O [compound 1]
[1]
  % loss of activity at 400 μM: 22%

## O=C(O)[C@@H](CO)O[C@H]1O[C@H](CO[C@H]2O[C@H](CO)[C@@H](O)[C@H](O)[C@H]2O)[C@@H](O)[C@H](O)[C@H]1O [DGG, (2R)-2-O-α-D-glucopyranosyl-(1→6)-α-D-glucopyranosyl-2,3-dihydroxypropanoate]
[2]
  preparative conversion, TLC and NMR of product: natural Oct-DGG produced by the M. tuberculosis, M. hassiacum and M. smegmatis recombinant OctT enzymes

B1: M. hassiacum OctT (Mycolicibacterium hassiacum DSM 44199) (protein)
chain: MSGRRPTLLVFCDSLSYYGPRGGLPADDPRIWPNIVASQLDWDVELIGRVGWTSRDVWWAATQDPRAWAALPRAGAVIFATGGMDSLPSPLPTALRELIRYIRPPWLRRRVRDLYGWLQPRLSPVSRNALPPHLTAEYLEMTRGAIDFNRPGIPVVAALPSVHIADSYGRAHHGREATARAITEWARQHGVVLVDLKAAVADQVLNGRGNPDGIHWNFEAHQAVAELMLKALAEAGVPCR
[3]
  kcat/Km: 35 ± 10 M⁻¹ s⁻¹
[4]
  Km: 0.06 ± 0.01 mM
  kcat/Km: 31.7 ± 6.67 M⁻¹ s⁻¹
[5]
  Km: 9.5 ± 0.8 mM
  kcat/Km: 0.167 M⁻¹ s⁻¹
[6]
  Km: 6.6 ± 0.78 mM
  kcat/Km: 0.05 ± 0.00667 M⁻¹ s⁻¹

B2: M. smegmatis OctT (Mycolicibacterium smegmatis MC2 155) (protein)
chain: MSSETSSESTGHRPVLLVFADSLSYFGPTGGLPADDPRIWPNIVGEQLGWDVELIGRIGWTCRDVWWAATQDPRSWAALPRAGAVVFATSGMDSLPSPLPTALREMIRYVRPPWLRRWVRDGYGWVQPRLSPIARSALPPHVTVEYLEMTRNAIDFNRPGIPVVASLPSVHIAETYGRAHHGREPTVRAITAWAEEHHVPLVDLKAAVADEVFGGRGNPDGIHWSFEAHRAVAELMLKGLAEAGVTQRDSAT
[7]
  Km: 0.03 ± 0.01 mM
  kcat/Km: 1430 ± 483 M⁻¹ s⁻¹
[8]
  Km: 20.0 ± 3.6 mM
  kcat/Km: 1.83 ± 0.833 M⁻¹ s⁻¹
[9]
  Km: 19.0 ± 8.6 mM
